Results on 4 molecules are retold here after CN108264566A (SHANGHAI XINBAINUO BIOTECHNOLOGY CO LTD, dated 2018).

One test has as its target T1, CD3-CD70BsM_D.
T1 construct: Glycosylated, disulfide-linked homodimer through the IgD hinge linker; made in CHO-S cells; also called 二聚体形式的抗CD3/CD70双特异性分子
As to the kind of experiment: ELISA, plate coated with 1 μg/ml CD27-hFc, binder titrated from 10 μg/ml.

The target of the next test is T2, CD3-CD70BsM_M.
T2 construct: made in CHO-S cells; also called 单体形式的抗CD3/CD70双特异性分子
Described as above.

A further test addresses T3, CD3-OX40L BsM_M.
T3 construct: made in CHO-S cells; also called 单体形式的抗CD3/OX40L双特异性分子
The test can be described thus: ELISA, plate coated with 1 μg/ml OX40-hFc, binder titrated from 10 μg/ml. (ELISA stands for enzyme-linked immunosorbent assay.)

For a further test, the target named is T4, CD3-OX40L BsM_D.
T4 construct: Glycosylated, disulfide-linked homodimer through the IgD hinge linker; made in CHO-S cells; also called 二聚体形式的抗CD3/OX40L双特异性分子
The test is described as above.

Another test deals with T5, CD3-B7RP-1BsM_D.
T5 construct: Glycosylated, disulfide-linked homodimer through the IgD hinge linker; made in CHO-S cells; also called 二聚体形式的抗CD3/B7RP-1双特异性分子
The test can be described thus: ELISA, plate coated with 1 μg/ml ICOS-hFc, binder titrated from 10 μg/ml.

The next test addresses T6, CD3-B7RP-1BsM_M.
T6 construct: made in CHO-S cells; also called 单体形式的抗CD3/B7RP-1双特异性分子
The test is described as above.

The target in the next test is T7, CD3-GITRL BsM_D.
T7 construct: Glycosylated, disulfide-linked homodimer through the IgD hinge linker; made in CHO-S cells; also called 二聚体形式的抗CD3/GITRL双特异性分子
The test can be described thus: ELISA, plate coated with 1 μg/ml GITR-hFc, binder titrated from 10 μg/ml.

The target in another test is T8, CD3-GITRL BsM_M.
T8 construct: made in CHO-S cells; also called 单体形式的抗CD3/GITRL双特异性分子
The description is as above.

B1: 人类CD27-hFc融合蛋白 (Fc fusion)
chain: ATPAPKSCPERHYWAQGKLCCQMCEPGTFLVKDCDQHRKAAQCDPCIPGVSFSPDHHTRPHCESCRHCNSGLLVRNCTITANAECACRNGWQCRDKECTECDPLPNPSLTARSSQALSPHPQPTHLPYVSEMLEARTAGHMQTLADFRQLPARTLSTHWPPQRSLCSSDFIR
notes: Bought fusion protein; also called 重组蛋白CD27-hFc; not shown: human Fc (hFc) of the bought fusion protein
B1: the binding result with CD3-CD70BsM_D and with CD3-CD70BsM_M was “binds” throughout.

B2: 人类OX40-hFc融合蛋白 (Fc fusion)
chain: LHCVGDTYPSNDRCCHECRPGNGMVSRCSRSQNTVCRPCGPGFYNDVVSSKPCKPCTWCNLRSGSERKQLCTATQDTVCRCRAGTQPLDSYKPGVDCAPCPPGHFSPGDNQACKPWTNCTLAGKHTLQPASNSSDAICEDRDPPATQPQETQGPPARPITVQPTEAWPRTSQGPSTRPVEVPGGRA
notes: Bought fusion protein; also called 重组蛋白OX40-hFc; not shown: human Fc (hFc) of the bought fusion protein
As for B2, the binding result with CD3-OX40L BsM_M and with CD3-OX40L BsM_D was “binds” throughout.

B3: 人类ICOS-hFc融合蛋白 (Fc fusion)
chain: EINGSANYEMFIFHNGGVQILCKYPDIVQQFKMQLLKGGQILCDLTKTKGSGNTVSIKSLKFCHSQLSNNSVSFFLYNLDHSHANYYFCNLSIFDPPPFKVTLTGGYLHIYESQLCCQLK
notes: Bought fusion protein; also called 重组蛋白ICOS-hFc; not shown: human Fc (hFc) of the bought fusion protein
In the case of B3, the binding result in the test with CD3-B7RP-1BsM_D and with CD3-B7RP-1BsM_M was “binds” throughout.

B4: 人类GITR-hFc融合蛋白 (Fc fusion)
chain: QRPTGGPGCGPGRLLLGTGTDARCCRVHTTRCCRDYPGEECCSEWDCMCVQPEFHCGDPCCTTCRHHPCPPGQGVQSQGKFSFGFQCIDCASGTFSGGHEGHCKPWTDCTQFGFLTVFPGNKTHNAVCVPGSPPAEP
notes: Bought fusion protein; also called 重组蛋白GITR-hFc; not shown: human Fc (hFc) of the bought fusion protein
For the molecule B4, the binding result with CD3-GITRL BsM_D and in the test with CD3-GITRL BsM_M was “binds” each time.
